From the supplement of paper PMC11316812
± gives the standard deviation of the averaged measurements.

How the values were obtained:
hTERT-HMEC = assay: percentage of EdU-negative (G0-arrested) nuclei per well, 72 h; higher = more G0 arrest; conditions: reference: sequence is the full UniProt precursor, the tested protein was the secreted form or ectodomain
MCF7 = assay: as above; conditions: reference: sequence is the full UniProt precursor, the tested protein was the secreted form or ectodomain
[1] = protein concentration 0.0173625 µM
[2] = protein concentration 0.173625 µM
[3] = protein concentration 0.0142825 µM
[4] = protein concentration 0.142825 µM
[5] = protein concentration 0.0145 µM
[6] = protein concentration 0.0334286 µM
[7] = protein concentration 0.334286 µM
[8] = protein concentration 0.0225 µM
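Also: secreted proteins added to cultured cells, EdU pulse at the end, nuclei found by Hoechst imaging, EdU status from nuclear versus surrounding ring intensity ratio, PBS as neutral control.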

MKLCSLAVLVPIVLFCEQHVFAFQSGQVLAALPRTSRQVQVLQNLTTTYEIVLWQPVTADLIVKKKQVHFFVNASDVDNVKAHLNVSGIPCSVLLADVEDLIQQQISNDTVSPRASASYYEQYHSLNEIYSWIEFITERHPDMLTKIHIGSSFEKYPLYVLKVSGKEQAAKNAIWIDCGIHAREWISPAFCLWFIGHITQFYGIIGQYTNLLRLVDFYVMPVVNVDGYDYSWKKNRMWRKNRSFYANNHCIGTDLNRNFASKHWCEEGASSSSCSETYCGLYPESEPEVKAVASFLRRNINQIKAYISMHSYSQHIVFPYSYTRSKSKDHEELSLVASEAVRAIEKISKNTRYTHGHGSETLYLAPGGGDDWIYDLGIKYSFTIELRDTGTYGFLLPERYIKPTCREAFAAVSKIAWHVIRNV [Q96IY4]
percentage of EdU-negative (hTERT-HMEC; [1]): 5.24 ± 0.032% | percentage of EdU-negative (hTERT-HMEC; [2]): 5.84 ± 0.41% | percentage of EdU-negative (MCF7; [1]): 24.7 ± 2.5% | percentage of EdU-negative (MCF7; [2]): 26.8 ± 0.93%

MKLCVTVLSLLMLVAAFCSPALSAPMGSDPPTACCFSYTARKLPRNFVVDYYETSSLCSQPAVVFQTKRSKQVCADPSESWVQEYVYDLELN
percentage of EdU-negative (hTERT-HMEC; [3]): 5.53 ± 0.77% | percentage of EdU-negative (hTERT-HMEC; [4]): 5.12 ± 0.26% | percentage of EdU-negative (MCF7; [3]): 24.5 ± 1.1% | percentage of EdU-negative (MCF7; [4]): 25.7 ± 0.56%

MKLCVTVLSLLVLVAAFCSLALSAPMGSDPPTACCFSYTARKLPRNFVVDYYETSSLCSQPAVVFQTKRGKQVCADPSESWVQEYVYDLELN [Q8NHW4]
percentage of EdU-negative (hTERT-HMEC; [5]): 5.26 ± 0.85% | percentage of EdU-negative (hTERT-HMEC; protein concentration 0.145 µM): 6.68 ± 1.3% | percentage of EdU-negative (MCF7; [5]): 23.4 ± 2% | percentage of EdU-negative (MCF7; protein concentration 0.145 µM): 25.62 ± 0.055%

MKLDMTGDCTPVLVLMAAVLTVTGAVPVARLHGALPDARGCHIAQFKSLSPQELQAFKRAKDALEESLLLKDCRCHSRLFPRTWDLRQLQVRERPMALEAELALTLKVLEATADTDPALVDVLDQPLHTLHHILSQFRACIQPQPTAGPRTRGRLHHWLYRLQEAPKKESPGCLEASVTFNLFRLLTRDLNCVASGDLCV [Q8IZJ0]
percentage of EdU-negative (hTERT-HMEC; [6]): 5.29 ± 0.59% | percentage of EdU-negative (hTERT-HMEC; [7]): 9.88 ± 1.6% | percentage of EdU-negative (MCF7; [6]): 22.9 ± 3.6% | percentage of EdU-negative (MCF7; [7]): 25.9 ± 4.6%

MKLGLLCALLSLLAGHGWADTRAIGAEECRPNSQPWQAGLFHLTRLFCGATLISDRWLLTAAHCRKPYLWVRLGEHHLWKWEGPEQLFRVTDFFPHPGFNKDLSANDHNDDIMLIRLPRQARLSPAVQPLNLSQTCVSPGMQCLISGWGAVSSPKALFPVTLQCANISILENKLCHWAYPGHISDSMLCAGLWEGGRGSCQGDSGGPLVCNGTLAGVVSGGAEPCSRPRRPAVYTSVCHYLDWIQEIMEN [Q9UKQ9]
percentage of EdU-negative (hTERT-HMEC; [8]): 5.253 ± 0.046% | percentage of EdU-negative (hTERT-HMEC; protein concentration 0.225 µM): 5.62 ± 1.2% | percentage of EdU-negative (MCF7; [8]): 26.66 ± 0.14% | percentage of EdU-negative (MCF7; protein concentration 0.225 µM): 29.4 ± 2.3%

MKLHYVAVLTLAILMFLTWLPESLSCNKALCASDVSKCLIQELCQCRPGEGNCSCCKECMLCLGALWDECCDCVGMCNPRNYSDTPPTSKSTVEELHEPIPSLFRALTEGDTQLNWNIVSFPVAEELSHHENLVSFLETVNQPHHQNVSVPSNNVHAPYSSDKEHMCTVVYFDDCMSIHQCKISCESMGASKYRWFHNACCECIGPECIDYGSKTVKCMNCMF [Q9GZX9]
percentage of EdU-negative (hTERT-HMEC; [8]): 4.64 ± 0.11% | percentage of EdU-negative (hTERT-HMEC; protein concentration 0.225 µM): 12.59 ± 0.086% | percentage of EdU-negative (MCF7; [8]): 23.8 ± 4.6% | percentage of EdU-negative (MCF7; protein concentration 0.225 µM): 28.8 ± 0.54%

MKLITILFLCSRLLLSLTQESQSEEIDCNDKDLFKAVDAALKKYNSQNQSNNQFVLYRITEATKTVGSDTFYSFKYEIKEGDCPVQSGKTWQDCEYKDAAKAATGECTATVGKRSSTKFSVATQTCQITPAEGPVVTAQYDCLGCVHPISTQSPDLEPILRHGIQYFNNNTQHSSLFMLNEVKRAQRQVVAGLNFRITYSIVQTNCSKENFLFLTPDCKSLWNGDTGECTDNAYIDIQLRIASFSQNCDIYPGKDFVQPPTKICVGCPRDIPTNSPELEETLTHTITKLNAENNATFYFKIDNVKKARVQVVAGKKYFIDFVARETTCSKESNEELTESCETKKLGQSLDCNAEVYVVPWEKKIYPTVNCQPLGMISLMKRPPGFSPFRSSRIGEIKEETTVSPPHTSMAPAQDEERDSGKEQGHTRRHDWGHEKQRKHNLGHGHKHERDQGHGHQRGHGLGHGHEQQHGLGHGHKFKLDDDLEHQGGHVLDHGHKHKHGHGHGKHKNKGKKNGKHNGWKTEHLASSSEDSTTPSAQTQEKTEGPTPIPSLAKPGVTVTFSDFQDSDLIATMMPPISPAPIQSDDDWIPDIQIDPNGLSFNPISDFPDTTSPKCPGRPWKSVSEINPTTQMKESYYFDLTDGLS
percentage of EdU-negative (hTERT-HMEC; protein concentration 0.006 µM): 4.85 ± 0.42% | percentage of EdU-negative (hTERT-HMEC; protein concentration 0.06 µM): 6.72 ± 0.15% | percentage of EdU-negative (MCF7; protein concentration 0.006 µM): 24.3 ± 0.58% | percentage of EdU-negative (MCF7; protein concentration 0.06 µM): 26.5 ± 0.67%

MKLKLKNVFLAYFLVSIAGLLYALVQLGQPCDCLPPLRAAAEQLRQKDLRISQLQAELRRPPPAPAQPPEPEALPTIYVVTPTYARLVQKAELVRLSQTLSLVPRLHWLLVEDAEGPTPLVSGLLAASGLLFTHLVVLTPKAQRLREGEPGWVHPRGVEQRNKALDWLRGRGGAVGGEKDPPPPGTQGVVYFADDDNTYSRELFEEMRWTRGVSVWPVGLVGGLRFEGPQVQDGRVVGFHTAWEPSRPFPVDMAGFAVALPLLLDKPNAQFDSTAPRGHLESSLLSHLVDPKDLEPRAANCTRVLVWHTRTEKPKMKQEEQLQRQGRGSDPAIEV
percentage of EdU-negative (hTERT-HMEC; [8]): 6.2 ± 0.23% | percentage of EdU-negative (hTERT-HMEC; protein concentration 0.225 µM): 9.73 ± 0.47% | percentage of EdU-negative (MCF7; [8]): 24 ± 0.88% | percentage of EdU-negative (MCF7; protein concentration 0.225 µM): 27.1 ± 1.6%

MKLLFPIFASLMLQYQVNTEFIGLRRCLMGLGRCRDHCNVDEKEIQKCKMKKCCVGPKVVKLIKNYLQYGTPNVLNEDVQEMLKPAKNSSAVIQRKHILSVLPQIKSTSFFANTNFVIIPNATPMNSATISTMTPGQITYTATSTKSNTKESRDSATASPPPAPPPPNILPTPSLELEEAEEQ [Q9H1M3]
percentage of EdU-negative (hTERT-HMEC; [8]): 4.86 ± 0.34% | percentage of EdU-negative (hTERT-HMEC; protein concentration 0.225 µM): 4.66 ± 0.73% | percentage of EdU-negative (MCF7; [8]): 23.2 ± 1.2% | percentage of EdU-negative (MCF7; protein concentration 0.225 µM): 25.3 ± 1.1%
